Consider six molecules from patent publication EP4667489A1 (Kyinno Biotechnology Co., Ltd., dated 2025).

The target in assay [1] is T1, human PDL1 expressed on 293T-PDL1 cells (human, UniProt Q9NZQ7 19-290). The experiment in a line: cell-based or functional assay.
Assay [2] addresses T2, PDL1-His (Kyinno, Cat No.: KP-1022) (UniProt Q9NZQ7 19-238, limits assumed).
T2 construct: not shown: His tag
The experiment in a line: BLI (ForteBio Octet), PDL1-His as mobile phase.

Assay [3] deals with T1, human PDL1 expressed on 293T-PDL1 cells. The experiment in a line: flow cytometry on 293T-PDL1 cells. (In general: A flow cytometer gives signals particle by particle.)
Assay [4] deals with T3, PDL1-hFc (Kyinno, Cat No.: KP-1009) (human, UniProt Q9NZQ7 19-238, limits assumed).
T3 construct: bought; not shown: human Fc (hFc)
The experiment in a line: flow cytometry, blocking of PDL1 Fc fusion (taken as PDL1-hFc) binding to 293T-PD1 cells.

Assay [5] addresses T4, LAG3-hFc (fusion protein of the human LAG3 extracellular domain and human IgG1-Fc) (human, UniProt P18627 23-450).
T4 construct: extracellular domain; not shown: human IgG1-Fc, Genbank CAC20454.1
T4 sequence (looked up): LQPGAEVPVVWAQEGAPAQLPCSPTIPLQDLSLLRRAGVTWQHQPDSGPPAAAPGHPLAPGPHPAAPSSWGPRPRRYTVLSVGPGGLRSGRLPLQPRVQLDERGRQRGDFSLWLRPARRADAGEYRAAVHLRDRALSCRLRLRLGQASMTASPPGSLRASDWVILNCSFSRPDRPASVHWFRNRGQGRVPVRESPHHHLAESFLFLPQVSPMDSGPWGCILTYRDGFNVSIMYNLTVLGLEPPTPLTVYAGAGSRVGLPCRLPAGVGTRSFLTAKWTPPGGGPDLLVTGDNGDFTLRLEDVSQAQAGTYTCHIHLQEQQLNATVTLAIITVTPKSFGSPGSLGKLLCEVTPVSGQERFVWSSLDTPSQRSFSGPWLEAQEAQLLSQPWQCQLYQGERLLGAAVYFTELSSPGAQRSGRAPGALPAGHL
The experiment in a line: flow cytometry, blocking of LAG3-hFc binding to Daudi cells.

Assay [6] addresses T5, human LAG3 expressed on 293T-LAG3 cells (human, UniProt P18627 23-525).
T5 construct: whole, on cells; 293T cells stably expressing human LAG3 (Kyinno KC-0214); also called LAG3-expressing cells
T5 sequence (looked up): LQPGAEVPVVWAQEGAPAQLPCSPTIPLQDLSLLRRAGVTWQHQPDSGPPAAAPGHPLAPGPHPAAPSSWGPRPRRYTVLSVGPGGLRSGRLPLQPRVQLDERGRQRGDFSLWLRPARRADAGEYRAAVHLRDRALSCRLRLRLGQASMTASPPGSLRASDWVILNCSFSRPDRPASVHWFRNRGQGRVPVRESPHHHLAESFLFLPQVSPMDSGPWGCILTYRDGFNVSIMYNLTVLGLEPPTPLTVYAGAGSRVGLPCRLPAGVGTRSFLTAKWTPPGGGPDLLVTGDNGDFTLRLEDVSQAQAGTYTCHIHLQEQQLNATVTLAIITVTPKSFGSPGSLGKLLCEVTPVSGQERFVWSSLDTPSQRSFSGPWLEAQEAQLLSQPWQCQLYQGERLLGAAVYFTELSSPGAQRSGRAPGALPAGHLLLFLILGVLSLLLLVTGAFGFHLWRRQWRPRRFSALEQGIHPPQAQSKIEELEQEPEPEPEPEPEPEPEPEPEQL
The experiment in a line: flow cytometry on 293T-LAG3 cells.

In assay [7] the target is T6, human PD1 expressed on 293T-PD1 cells (human, UniProt Q15116 25-288).
T6 construct: whole, on cells; 293T cells stably expressing human PD1 (Kyinno KC-0204); also called PD1-expressing cells; Jurkat NFAT-PD1-luc cells
The experiment in a line: flow cytometry on 293T-PD1 cells.

The target of assay [8] is T7, PD1-hFc (fusion protein of the human PD1 extracellular domain and human IgG1-Fc) (human, UniProt Q15116 25-170).
T7 construct: extracellular domain; also called human PD1-hFc; not shown: human IgG1-Fc, Genbank CAC20454.1
The experiment in a line: flow cytometry, blocking of PD1-hFc binding to 293T-PDL1 cells.

For assay [9], the target named is T8, human EGFR expressed on CT26-EGFR cells (human, UniProt P00533 25-1210). The experiment in a line: cell-based or functional assay.
For assay [10], the target named is T8, human EGFR expressed on CT26-EGFR cells. The experiment in a line: flow cytometry on CT26-EGFR cells.
In assay [11] the target is T9, EGFR-His (Kyinno, Cat No.: KP-1150) (UniProt P00533 25-645, limits assumed).
T9 construct: bought; not shown: His tag
The experiment in a line: BLI (ForteBio Octet), EGFR-His as mobile phase. (In general: In BLI a coated tip is dipped into the sample, and binding shifts an interference pattern.)

For assay [12], the target named is T10, EGFR-hFc (Kyinno, Cat No.: KP-1149) (UniProt P00533 25-645, limits assumed).
T10 construct: bought; also called EGFR-Fc; not shown: human Fc (hFc)
The experiment in a line: ELISA, blocking of EGFR Fc fusion (taken as EGFR-hFc) binding to coated EGF-His. (In general: An ELISA detects its analyte on a solid surface through an enzyme-linked reagent.)

Assay [13] deals with T11, PDL1-mFc (fusion protein of the human PDL1 extracellular domain and mouse Fc; Kyinno, Cat No.: KP-1008) (human; mouse, UniProt Q9NZQ7 19-238).
T11 construct: extracellular domain; bought; also called human PDL1-mFc; not shown: mouse Fc
The experiment in a line: flow cytometry, blocking of PDL1-mFc binding to 293T-PD1 cells.

For assay [14], the target named is T1, human PDL1 expressed on 293T-PDL1 cells. The experiment in a line: flow cytometry on 293T-PDL1 cells. This is another data set of the same source.
Assay [15] has the same target. The experiment in a line: cell-based or functional assay. The source holds these as a separate data set.
The target in assay [16] is T8, human EGFR expressed on CT26-EGFR cells. The experiment in a line: flow cytometry on CT26-EGFR cells. This is another data set of the same source.
Assay [17] has the same target. The experiment in a line: cell-based or functional assay. The source holds these as a separate data set.
The target of assay [18] is T12, EGFR-mFc (fusion protein of the human EGFR extracellular domain and mouse Fc; Kyinno, Cat No.: KP-1148) (human; mouse, UniProt P00533 25-645).
T12 construct: extracellular domain; bought; also called EGFR-Fc; not shown: mouse Fc
The experiment in a line: ELISA, blocking of EGFR-mFc binding to coated EGF-His.

Substitutions are numbered along the chain they refer to. Like-named read-outs stand apart in the source and are kept apart here.

T2 sequence (Q9NZQ7 19-238 limits assumed): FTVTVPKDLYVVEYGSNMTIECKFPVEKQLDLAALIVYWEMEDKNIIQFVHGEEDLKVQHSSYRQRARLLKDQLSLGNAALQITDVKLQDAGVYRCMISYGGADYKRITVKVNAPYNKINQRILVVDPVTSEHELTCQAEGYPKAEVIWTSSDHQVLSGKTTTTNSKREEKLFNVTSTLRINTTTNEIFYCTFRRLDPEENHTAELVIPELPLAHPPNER
T1 sequence (Q9NZQ7 19-290): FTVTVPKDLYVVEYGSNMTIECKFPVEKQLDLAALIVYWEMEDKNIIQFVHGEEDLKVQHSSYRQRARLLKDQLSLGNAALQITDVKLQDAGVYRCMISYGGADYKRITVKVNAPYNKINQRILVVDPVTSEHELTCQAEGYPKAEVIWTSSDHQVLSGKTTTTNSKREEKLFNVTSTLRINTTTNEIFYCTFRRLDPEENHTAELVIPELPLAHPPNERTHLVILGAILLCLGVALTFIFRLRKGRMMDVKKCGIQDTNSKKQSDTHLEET
T11 sequence (Q9NZQ7 19-238): as the sequence (Q9NZQ7 19-238 limits assumed) above
T3 sequence (Q9NZQ7 19-238 limits assumed): as above
T7 sequence (Q15116 25-170): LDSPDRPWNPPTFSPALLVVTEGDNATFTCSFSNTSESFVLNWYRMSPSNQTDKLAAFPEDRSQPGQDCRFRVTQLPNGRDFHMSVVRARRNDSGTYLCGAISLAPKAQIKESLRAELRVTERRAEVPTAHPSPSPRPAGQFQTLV
T6 sequence (Q15116 25-288): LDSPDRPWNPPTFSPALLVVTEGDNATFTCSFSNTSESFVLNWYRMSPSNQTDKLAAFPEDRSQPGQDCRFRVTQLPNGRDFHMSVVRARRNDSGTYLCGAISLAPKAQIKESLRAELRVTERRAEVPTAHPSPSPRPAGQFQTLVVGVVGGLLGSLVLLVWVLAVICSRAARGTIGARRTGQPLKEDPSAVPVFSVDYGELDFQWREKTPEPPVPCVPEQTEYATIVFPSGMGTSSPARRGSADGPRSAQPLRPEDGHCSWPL

B1: anti-PDL1 murine antibody 58E3-2 (hybridoma cell line KD-22-0227 58E3-2) (antibody, V domains shown)
VH: QVQLKESGGGLVKPGGSLKLSCAASGFTFSDYGIHWVRQAPEKGLEWVAFISSGSSTIYYADTVKGRFTISRDNAKNTLFLQMTSLRSEDTAMYYCTRRDFYGSADAMDYWGQGTSVTVSS
VL: QIVLTQSPAIMSASPGEKVTMTCSASSSVSYMHWYQQKSGTSPKRWIYDTSKLASGVPARFSGSGSGTSYSLTISSMEAEDAATYYCQQWSSNPPYTFGSGTKLEIK
notes: murine antibody
As to B1, in assay [1], the “IC50, luciferase reporter (Jurkat NFAT-PD1-luc + 293T OS8-hPDL1 cells)” value was 1 µg/mL and the “Top (fold increase in activation), luciferase reporter” value was determined as 3.52. In [2], this molecule displayed a Kd of 0.431 nM, a koff of 0.000618 s⁻¹ and a kon of 1.43e+06 M⁻¹ s⁻¹. In addition, in assay [3], the EC50 was 0.245 µg/mL. Besides, the IC50 in [4] was 0.986 µg/mL.

B2: anti-LAG3 murine antibody 28G2 (hybridoma cell line KD-0019 28G2-7) (antibody, V domains shown)
VH: DVKLQESGPGLVKPSQSLSLTCSVTGYSFTSGYYWNWIRLFPGNKLEWMGYVSYFGTNNYNPSLKNRFSITRDTSKNQFFLKLNSVSTEDTATYYCARGEEWDWSFDVWGTGTTVTVSS
VL: B1 VL with Q1D, I10F, A59T, S92T, S100G
notes: murine antibody tested as hybridoma culture supernatant
As for B2, the IC50 in assay [5] is 1.26 µg/mL. This molecule also had an EC50 in assay [6] of 1.08 µg/mL.

B3: anti-PD1 murine antibody 107D12-10 (hybridoma cell line KD-22-0054 107D12-10) (antibody, V domains shown)
VH: QVQLKESGGGLVKPGGSLKLSCAASGFTFSDYGMHWVRQAPEKGLEWVAYISSGSYTIYYADTVRDRFTISRDSAKNTLFLQMTSLRSEDTAMYYCVRRGPGYFGSTALDYWGQGTTLTVSS
VL: B1 VL with S26T, S28G, K52R
notes: as for B2
As for B3, the midpoint of the response in assay [7], the EC50, lay at 0.685 µg/mL. The same molecule gave an IC50 in assay [8] of 2.26 µg/mL.

B4: anti-EGFR murine antibody 22A12-2 (hybridoma cell line KD-22-0198 22A12-2) (antibody, V domains shown)
VH: EVQLQQSGPELVKPGASVKISCKASGYTFTDYYMNWVKQSHGKSLEWIGDINPNDGGTSYNQKFKGKATLTVDKSSSTAYMELRSLTSEDSAVYYCAREILYYVTSFYFDYWGQGTTLTVSS
VL: B1 VL with S26T, S28G, K52R
notes: murine antibody
Consider B4, for which the “IC50, luciferase reporter (293T-NFAT-Luc2-EGFR cells stimulated with EGF-His)” value in assay [9] is 0.373 µg/mL. The molecule also registered an EC50 in assay [10] of 0.0242 µg/mL. In assay [11], this molecule had a Kd of 1.15 nM, a koff of 0.00111 s⁻¹ and a kon of 965000 M⁻¹ s⁻¹. For the same molecule, the IC50 in [12] came to 1.58 µg/mL.

B5: KA-2016 H58E3-2V4-2-hIgG1 (antibody, V domains shown)
VH: QVQLVESGGGLVKPGGSLRLSCAASGFTFSDYGIHWIRQAPGKGLEWVAFISSGSSTIYYADAVKGRFTISRDNAKNSLYLQMNSLRAEDTAVYYCTRRDFYGSADAMDYWGQGTTVTVSS
VL: DIQLTQSPSTLSASVGDRVTITCSATSSIGYMHWYQQKPGTSPKRWIYDTSKLASGVPSRFSGSGSGTEYTLTISSLQPDDFATYYCQLWSSDPPYTFGQGTRLEIKR
notes: anti-PDL1 humanized antibody, human IgG1 / kappa
In [13], B5 had an IC50 of 0.0229 µg/mL. Moreover, the midpoint of the response in [14], the EC50, lay at 0.0419 µg/mL. The “IC50, luciferase reporter (procedure of Example 25)” value in [15] is 0.081 nM.

B6: KA-1063 H22A12-2V1-hIgG1 (antibody, V domains shown)
VH: QVQLVQSGAEVKKPGASVKVSCKASGYTFTDYYMNWVRQAPGQGLEWIGDINPNDGGTSYNQKFKGRATLTVDKSTSTAYMELSSLRSEDTAVYYCAREILYYVTSFYFDYWGQGTTVTVSS
VL: DIQITQSPSSLSASVGDRVTITCSATSGVSYMHWYQQKPGKAPKRLIYDTSRLASGVPSRFSGSGSGTDYTLTISSLQPEDFATYYCQQWSSNPPYTFGQGTRLEIKR
notes: anti-EGFR humanized antibody, human IgG1 / kappa
With B6, in [16], the response was half-maximal at 0.0382 µg/mL (EC50). Also, the “IC50, luciferase reporter (procedure of Example 34)” value in assay [17] amounted to 0.389 nM. For the same molecule, the IC50 in assay [18] amounted to 0.0357 µg/mL.

As usually defined, the Kd is a measure of binding affinity in units of concentration. What is called koff is the first-order rate constant of dissociation. In general, kon refers to a measure of how fast the partners come together. A word on the EC50: it is the midpoint of the concentration-response curve. A higher EC50 goes with lower potency in that assay. By IC50 is commonly meant the concentration that inhibits the measured activity by half.
